Assay: soluble fraction after stress (log2 fold change); higher = more stays soluble; pooled small domains, quantitative proteomics
Details: stress: pH 4
Outline: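 Custom libraries of small protein domains were pooled and measured with high-throughput quantitative proteomics after pH 4 stress. The read-out is the fold change in the amount of each domain that stays soluble after the acid stress, taken as a measure of aggregation propensity. Fold changes are on a log2 scale, and higher values mean more of the domain stayed soluble.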

Row | Sequence | soluble fraction (log2)
1 | HMLPKLAEEYAIMEIRGKGENLTAKLINKGGDSFMVRNGTVLQTGHRIDEITQTYVRAEINGMKDYLYFA | -1.44
2 | HMHHIDYKQLRRINPVAARRAVLDYLESTGGNITKTAQVFSINRSVVYDILKKQASGDLSDRLRIP | 0.249
3 | HMYAHTPEMEAMNELGLEPPVTLDEIKKTYKTLVKKYHPDHNKEDPEAEEKLKKVNMAYTILKVAYTEFEK | 0.0101
4 | HMDRWTPLVVAVLSRGSHRFGELRAAIGGITPKVLTDTLRSMERDGLITRDQAPGVPPRVDYALTPLGS | -0.126
5 | HMTNLKALRESKGVSQQTVADYLGITRQAYGNYETGKRQADYAALLRLAAFFGVSVDALLQP | 0.102
6 | HMDLSLQTFNELKTELTNNKITIDQFSEKINEFDITSDIFEISRELFLDDTLSLEDYLVVIENVLIN | -0.782
7 | HMKSILDDVVGLGPVRKKALLSAAGGFRKLRDMDVDEVIGLGAVPEEVAREVVTVLAQYNGERDRVEGL | 0.104
8 | HMKKTAAKVLGESEGKPVTVQSGRYGPYVQLGSIRATLPKDLEQDDVTLDRALELISAKAERAGK | 0.0406
9 | HMQYDSYTVEEPAKLLDWLLAHLRQSRTKIKATLQGHGIKVNGKTVTQFDYPLEPGMKIRVSLTK | -0.622
10 | HMELLSVPSRLGTFFLGGEAGHIIRLYLPGDPTPRIAEHETPVLSEARRQLLEYLAGRRTAFSFPL | -0.223
11 | HMQSISLEEAKSAALDDAQLGIDEVEFLKTERNTDGDTSYYDIQFLVNGTIYKYQINTETGAILHVDYEA | -0.511
12 | HMYMLYQQLADSLRDKIYEGTYTFGDKIPSERTLAATFGISHLTVRKALAILEEEGLLDRRQGNGTFVRV | -0.693
13 | HMGDFLLTPHRGRSADFVIGNPPYIRLEDVPNDISDAYRAEYASMPGRADIHVGFYEKGLDL | -0.506
14 | HMSRYAFEGNVVRLNQKDFDSWKALFTNIDLVSELTRLDIEFTHDKPKNWFSTASAKLNYQNKNAY | -0.903
15 | HMTYTPRAGSLASQVIGFFRHNPDEELLLDDITDKFDATRGNIHTLLAEAVRFKLLARYRNDDGDYVYKPG | -1.6
16 | HMTNIDIEKSIKNTITANYDDVLNYHNEDDNKTFASGDSRYSFDYDEKTKTLIVFTNSKVDAVFVDGIKKK | 0.255
17 | HMSDFSSNLRRLRKRAGLSQDALAEKLSVARQTVSSWERGNSYPDLDMLVRISDALATDPNELLYPN | 0.0655
18 | HMAQLPPTATARATSDVSGLTASAALRTLLEQGFVPQIHGSGKVSRQHPPAGTLLEPGSTIQLFLEPS | ≥ 0.43
19 | HMEHVVFEVTESGELENNTAVKHVLNSFNNKSLNLAIDDFGTGYSNLRYIRDMMFGIIKIDRLFIKDINES | 0.158
20 | HMLDLPVRTINGRQYYYYEVRNRETVYGLSKRLGVTREEIVRYNPSMADGLKRGAILYFPVDEFSDRI | -0.0139
21 | HMNMGKRFKELRKERKFTQQQLADRIGLAPSAISSYESGARYPSYDVLIKYSKIFHVTTDYLLG | 0.148
22 | HMVYFDDEELDRFAGRAADSYTSDETDEFRDVMLTLLPADVMPWTQSIEMRGILLPEQLRDELLML | -1.26
23 | HMSSHNIALDQDVVVTQLKGKVYLVAADGSQKQLAEGDILPKDAVLITPEGASFKGGNQTFTLS | -0.235
24 | HMSMDPYTVLGVNKSSTDSQIKNAYKNLAKQHHPDRGGNEAKFKEISTAYEQIKTAEKRQQYDMSQQF | 0.389
25 | HMIETIIGAEGKVLETIDNFNQKGVVALAGKEWTARSADASIIPEGAKVSVVEISGVKLIVTQN | -0.24
26 | HMAYVDWYENKQPTHEEAFKKLLGRIHPGAIVLLHSTSKTNGEILDELLTKWEEMGYRFGTLDELTGN | -1.14

Row | Sequence | soluble fraction (log2)
27 | HMNFIPGEKINLKIVQEGKEKNQGVGYLSDGTMVIVENGSQKLGQDVEVVVIKNIQSSAGKIVFGDISK | 0.227
28 | HMKYNGDRPVFNDDVAWAKWMLENPAKITSHDKENLSSMLKKPEVVMLFEAEDLSVPDLRTLAKE | -0.349
29 | HMASVVEQVQVSNDISLFRQQNSPYWQARFKVAGKWYTRTTKRTEQTQAAFRAAELRSEVQTKISQGIPLR | -0.00738
30 | HMSYSYIYNYALKVKMDISSTGGKKPYAYYYYDHSYKLAEEILSLSEETESIELQNKYDELKDFYENP | -1.04
31 | HMVVMEIGANGSEVVKLQKRLNQLGYYTEHASGVYDVKTASAVNEFQRQNELNATGKADYTTLDMIYNQ | -0.204
32 | HMAQPIPSGSDIREAREAAGMNLRDFARMVGGGAIGTWSHYETGKPIRVKSISPEVWQRVRDFILQHGK | 0.036
33 | HMLSVLKNVDVNSLSDDKIKTYWQQIQKSGYTLDEVEVLAEAQGISPLKIAAFKRRVQSLQQSLQT | -0.018
34 | HMADGTSIYAEREVLYVTSPTANTAKVYNVSGALVRTMTLSAGQTVRTALPAGFYVVALGNGNTHKVIV | 0.0275
35 | HMYEENFSKIKNDISTIFKRHKISFTNNFISHLSSVFNTDSLTNKMELEKLDSFLINNKKVTENELLKFII | 0.0436
36 | HMGMDALIGRRVFVSEEILPGDTGGRMAVDGDSWRAISVGTASNIPAGTEVRIRGHQSLVLEVEP | -0.629
37 | HMSNKYYETILDWFKSQIMSGELKEGDTIPSERELATRFGVSRVPVREALRILEYIGIVSNTADGMTVQKV | -0.976
38 | HMDDEAVQIMTLHISKGLEFDVVFALGLVSRTPESKEIEELEAEKQRQLYVAMTRAEKWLIVAA | 0.22
39 | HMAAHHIILEEREQLSVSGVEEVESFDENTIVMLTNRGTLIVRGEELHIEKLSLDGGDLRVEGSIDSLTYE | -1.09
40 | HMSTTYAPYLLGETEQEAIRMARNAGLDPQVVRQSDKSEAGTVILQSHDFGFAMKRGAVILITVSSGPLQ | -0.0322
41 | HMNLTSNDAYSRILNAIITSELRPGDTVTEIQLAQKFGFGRTPVREAIMRLENEGFIVSAERKKRVYIL | -0.815
42 | HMDLATQHAAKVNAAILAARRFEREGSWRQVAAKYSEALQLMPGNEQASRGYQQAMAMLDERD | 0.41
43 | HMGRLPMNIVRAIVEHLDRHASYSEINRATGASKGFISKVAAAVEAASLTPEKFLLLNDEDIQNRITPGR | -0.133
44 | HMRVDRSALDSIPGVGPGRKRTLLHHFGSARAVEASGLADLESIRGISKALARKIYDFFHPE | 0.161
45 | HMEKYTDDLEIAAEIARLETLMEGNGRVLIRPSGTEPLVRVMIEGNDIEQITKLAEDLAALLNKRF | -0.842
46 | HMSRVFSPSELEIRHAQDVFQALEEAKRQGKGAVSLNGKMIDAPIVARAKLVLEAAAAIYGED | -0.202
47 | HMTKDEIIIQSIIDAAKKLMQQYGLNKTTMEDIAKEAGKGKSTLYHYFKSKEEIFDQVINQEID | -1.06
48 | HMPELTERELEVLLLTARGLPSSEAARLLFITRRTVAAHLTSIYGKLGARNKTEAVLAALKRGIIMLDQIG | -1.46
49 | HMSQSLSGWAAKDLEVKSGADASYRTVGRLPKGSKVSGKIINGYLHIEFDGSMRYVPVSGISKTE | 0.156
50 | HMYEINEIIRERRLKKGLTQAQVAKYLGVSAPAVNKWEKGTTYPDLVLLPALARLLDTDLTTLLSF | -1.02
51 | HMEFVEERRNRMLDYIGENKRADVPELARHFDVTEVTIRRDLLILEQDGKLIRTHGGAMINR | -0.278
52 | HMSELDASYLGQRVRYVSGFTETDPSEGLVEFRGSNWRARAEHPPLDHSGHWVIVKVESNTLWVEEKSN | 0.0761

Row | Sequence | soluble fraction (log2)
53 | HMLTANPEEVVNRLTSAGEVGVRPLLDVDDPINAISTLLAIREDVYKQFAQFDTVGKSPSEIAHEIDDFL | -0.162
54 | HMGSIGAMLSSPELYGKLATNPATRGFLSQPDFIAMLTDVQKNPDKFGSYMSDPRMMQVLSVALG | -0.103
55 | HMKPLAQQVNDYLAATRTSIATLANEIPGYSRPTISRYLAGKYDGDITTIEKLLAEWLAQRTG | -0.581
56 | HMFDDLSTNLRDLAHNYIEKYSPSKQQLKVFLLKKYLMKFKGSKTKKEISEIIDKIISNLEENKYLNDEL | 0.179
57 | HMSYKFDSLAIILNKLDGKETVNVSSLSDELEVSARTVHRYIGTLQVAGFPIEYDKTKNSYIFSEGYTL | -1.05
58 | HMGASSLVGRSARVLQAVTDSDGRIKLAGETWSARLAAGATSTVGPGEEVRVIAIHGATAIVAPV | 0.0834
59 | HMGMETQLSPKEKSIYTIIQNRPNIQSGEVSEKLAIPLPTVKRILSDLINKGLIEKQGSGRNVSYTI | 0.241
60 | HMTSVFQNSDGTWGHLTKTVNPLIYTIEYGRRTGFSSREEAEESYQRSLTSYQDQLSKLKKERD | 0.223
61 | HMAKIATTVYEQIRTAILNGELSNSERLVEEDLAVSMGISRTPVREALRRLAAEGLVDVSPNRGARVAE | -0.778
62 | HMGPELGENEKLIFDIIKKESKMELGILKAQVDLSNKKWDKALKGLATHGLTKVNKTDDGLFIELI | -0.942
63 | HMLTGDVDRYKDFFIALEKTSPVPIGFEKIIGGAHGYYHLEDKRIAIDEGMSELQTLKTAIHEIAHAKLHD | -0.123
64 | HMVSDISTQYQKIINEALDKQPEVKLADIVTMIKEQTSNKVQNGIVENVAKQMNGIEIIKIGQAKGVRRTT | 0.152
65 | HMSFNSQENKSVLWQFLLENNFFIGLSDKKFNKVKDIFEKNIQSISIVNDSISNKNKILIQKMMEELELL | -1.46
66 | HMSKPILSFVDPEKDPSHYVKRYITEETYKDWFSEHFPDYTLYEGIGITQEEYRNIVNELTKP | -1.7
67 | HMISLNEDQKLAILNEWNQRPDDPPFIKELIELVFPDIPEEAKTGRSRYGIAIKKFLAEKSLQAKV | -0.554
68 | HMNIIMLGEFIKEQRIKRKMTQEYLASELGISRPTYSQIELGTRELTIPEARKMAAIFNISLEDFLAEKE | 0.149
69 | HMSIYYQIYESLKKDLSNNLYKPGEKLPSENVLSKRFGVNRHTIRRSLQLLKNEGILFSKRGSGIIVHD | 0.359
70 | HMDYAQAQRQAESAIALRPDVERLRLLLIYALQKQGKLREAEQAAADAIKSGLDTPALRQARANLRP | -0.205
71 | HMFPASQPVPTDLNQIVRAGLEVFSGRLEGIDVRVSLEPELPRVNVDPEHFKRIVVNLVDNAAEAMQNS | -0.0189
72 | HMPSLGADIRALRKSRKMTLVALADALGRSVGWLSQVERDKSHATIADLGRMAEVLDVSISSFL | -0.209
73 | HMDEIDYSKYSITTSNRIINIDGVQSKVELFDVSGRSIQSTMVTGKFSSRPLNAGFYIIHVDGYSVKVSV | -1.19
74 | HMTKAGVDAWTRGDYAAAVKEWQAQAAKGDADAIFNLGQAFKLGKGVPQDLIKAEQLFGQAAA | -0.466
75 | HMGGLAEGTKITLQNTVNVRASMGEDAEKIGTAYAGEKVTVIMSYAEGWTKVTWNDKTGYIKTSLL | -1.04
76 | HMEVKEVDYSAFMTMTEENSISKVEIEENQILFKKKGDDQTTYKTARMDDPALITRLHDQGVDFTGQ | 0.0244
